The results in this text go back to US20220372155A1 (LYVGEN BIOPHARMA, published 2022).

The target in the assay is T1, human CD40 expressed on CHO cells (human, UniProt P25942 21-277).
T1 construct: whole, on cells; also used for the reporter cells over-expressing human CD40; also called cellular CD40; CHO-CD40 cells
The assay is described as follows: FACS, CHO cells. (Flow cytometry measures light scatter and fluorescence of single cells or particles in a stream.)

T1 sequence (P25942 21-277): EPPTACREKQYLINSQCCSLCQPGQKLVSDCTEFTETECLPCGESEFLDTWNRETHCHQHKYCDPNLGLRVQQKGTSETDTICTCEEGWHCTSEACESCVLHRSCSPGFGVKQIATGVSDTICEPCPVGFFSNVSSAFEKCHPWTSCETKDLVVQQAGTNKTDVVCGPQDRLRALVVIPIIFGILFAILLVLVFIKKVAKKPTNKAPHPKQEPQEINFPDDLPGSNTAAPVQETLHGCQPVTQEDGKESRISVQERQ

B1: Ly806 (bispecific antibody, human IgG1, kappa)
heavy: QVQLQQPGAELVKPGASVKLSCKASGYTFTSYWMHWVKQRPGQGLEWIGMIHPNSGGTNYNEKFKGKGTLTVDKSSSTAYMQLSSLTSDDSAVYYCVTSQATWFAYWGQGTLVTVSAASTKGPSVFPLAPSSKSTSGGTAALGCLVKDYFPEPVTVSWNSGALTSGVHTFPAVLQSSGLYSLSSVVTVPSSSLGTQTYICNVNHKPSNTKVDKKVEPKSCDKTHTCPPCPAPELLGPSVFLFPPKPKDTLMISRTPEVTCVVVDVSHEDPEVKFNWYVDGVEVHNAKTKPREEQYNSTYRVVSVLTVLHQDWLNGKEYKCKVSNKALPAPIEKTISKAKGQPREPQVYTLPPSREEMTKNQVSLTCLVKGFYPSDIAVEWESNGQPENNYKTTPPVLDSDGSFFLYSKLTVDKSRWQQGNVFSCSVMHEALHNHYTQKSLSLSPG
light: ENVLTQSPAIMSVSPGEKVTMTCRASSSVSSSYLHWYQQKSGASPKFWIYSTSNLASGVPARFSGSGSGTSYSLTISSVEAEDAATYYCQHYSGYPLTFGAGTKLELRRTVAAPSVFIFPPSDEQLKSGTASVVCLLNNFYPREAKVQWKVDNALQSGNSQESVTEQDSKDSTYSLSSTLTLSKADYEKHKVYACEVTHQGLSSPVTKSFNRGECGGGGSGGGGSGGGGSGGGGSQVQLVESGGGLVQPGGSLKLSCATSGFNFNDYFMNWVRQASGKGLEWVGQIRNKNYNYATYYTESLEGRVTISRDDSKNTAYLQMNSLKTEDTAVYYCTSYYYDGFADYFDYWGQGTTVTVSSGGGGSGGGGSGGGGSGGGGSDIQMTQSPSSLSASVGDRVTITCKASQNIYIYLNWYQQKPGKAPKLLIYNTNNLQTGVPSRFSGSGSGTDFTLTISSLQPEDFATYYCLQHSSRRTFGGGTKVEIK
notes: Ly387 HC (IgG1 mutated Fc) + Ly387 LC-TM740 scFv VH-VL
For the molecule B1, the binding result is recorded as “binds”.

B2: Ly816 (bispecific antibody, human IgG1, kappa)
heavy: QVQLQQPGAELVKPGASVKLSCKASGYTFTSYWMHWVKQRPGQGLEWIGMIHPNSGGTNYNEKFKGKGTLTVDKSSSTAYMQLSSLTSDDSAVYYCVTSQATWFAYWGQGTLVTVSAASTKGPSVFPLAPSSKSTSGGTAALGCLVKDYFPEPVTVSWNSGALTSGVHTFPAVLQSSGLYSLSSVVTVPSSSLGTQTYICNVNHKPSNTKVDKKVEPKSCDKTHTCPPCPAPELLGPSVFLFPPKPKDTLMISRTPEVTCVVVDVSHEDPEVKFNWYVDGVEVHNAKTKPREEQYNSTYRVVSVLTVLHQDWLNGKEYKCKVSNKALPAPIEKTISKAKGQPREPQVYTLPPSREEMTKNQVSLTCLVKGFYPSDIAVEWESNGQPENNYKTTPPVLDSDGSFFLYSKLTVDKSRWQQGNVFSCSVMHEALHNHYTQKSLSLSPG
light: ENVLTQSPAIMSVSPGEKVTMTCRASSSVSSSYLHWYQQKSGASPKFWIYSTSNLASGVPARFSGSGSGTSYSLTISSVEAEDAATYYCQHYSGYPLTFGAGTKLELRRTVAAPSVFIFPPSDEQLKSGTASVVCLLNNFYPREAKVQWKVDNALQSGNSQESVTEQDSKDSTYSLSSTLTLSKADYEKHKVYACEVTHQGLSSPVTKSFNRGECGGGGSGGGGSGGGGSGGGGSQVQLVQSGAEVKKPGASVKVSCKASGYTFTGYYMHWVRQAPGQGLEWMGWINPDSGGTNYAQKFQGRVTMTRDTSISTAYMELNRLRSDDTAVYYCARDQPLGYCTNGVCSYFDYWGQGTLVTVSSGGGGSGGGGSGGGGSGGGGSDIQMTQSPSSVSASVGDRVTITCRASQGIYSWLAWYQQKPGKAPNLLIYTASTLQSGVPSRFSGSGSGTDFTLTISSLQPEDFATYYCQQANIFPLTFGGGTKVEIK
notes: Ly387 HC (IgG1 mutated Fc) + Ly387 LC-Ly253 scFv VH-VL
B2: the binding result was “binds”.

B3: Ly808 (bispecific antibody, human IgG1, kappa)
heavy: QVQLQQPGAELVKPGASVKLSCKASGYTFTSYWMHWVKQRPGQGLEWIGMIHPNSGGTNYNEKFKGKGTLTVDKSSSTAYMQLSSLTSDDSAVYYCVTSQATWFAYWGQGTLVTVSAASTKGPSVFPLAPSSKSTSGGTAALGCLVKDYFPEPVTVSWNSGALTSGVHTFPAVLQSSGLYSLSSVVTVPSSSLGTQTYICNVNHKPSNTKVDKKVEPKSCDKTHTCPPCPAPELLGPSVFLFPPKPKDTLMISRTPEVTCVVVDVSHEDPEVKFNWYVDGVEVHNAKTKPREEQYNSTYRVVSVLTVLHQDWLNGKEYKCKVSNKALPAPIEKTISKAKGQPREPQVYTLPPSREEMTKNQVSLTCLVKGFYPSDIAVEWESNGQPENNYKTTPPVLDSDGSFFLYSKLTVDKSRWQQGNVFSCSVMHEALHNHYTQKSLSLSPG
light: ENVLTQSPAIMSVSPGEKVTMTCRASSSVSSSYLHWYQQKSGASPKFWIYSTSNLASGVPARFSGSGSGTSYSLTISSVEAEDAATYYCQHYSGYPLTFGAGTKLELRRTVAAPSVFIFPPSDEQLKSGTASVVCLLNNFYPREAKVQWKVDNALQSGNSQESVTEQDSKDSTYSLSSTLTLSKADYEKHKVYACEVTHQGLSSPVTKSFNRGECGGGGSGGGGSGGGGSGGGGSEVQLVESGGGLVQPGGSLRLSCAASGFTFTNYGLHWVRQAPGKGLEWVSSISPSGGVTYYRDSVKGRFTISRDNSKNTLYLQMNSLRAEDTAVYYCAKPFLGWGGANWIAHWGQGTLVTVSSGGGGSGGGGSGGGGSGGGGSDIQMTQSPSSLSASVGDRVTITCLASEDISNDLAWYQQKPGKAPKLLIYFVDRLLDGVPSRFSGSGSGTDFTLTISSLQPEDFATYYCQQSYKYPPTFGQGTKLEIK
notes: Ly387 HC (IgG1 mutated Fc) + Ly387 LC-TM559 scFv VH-VL
Consider B3, for which the binding result is recorded as “binds”.

B4: Ly815 (bispecific antibody, human IgG1, kappa)
heavy: QVQLQQPGAELVKPGASVKLSCKASGYTFTSYWMHWVKQRPGQGLEWIGMIHPNSGGTNYNEKFKGKGTLTVDKSSSTAYMQLSSLTSDDSAVYYCVTSQATWFAYWGQGTLVTVSAASTKGPSVFPLAPSSKSTSGGTAALGCLVKDYFPEPVTVSWNSGALTSGVHTFPAVLQSSGLYSLSSVVTVPSSSLGTQTYICNVNHKPSNTKVDKKVEPKSCDKTHTCPPCPAPELLGPSVFLFPPKPKDTLMISRTPEVTCVVVDVSHEDPEVKFNWYVDGVEVHNAKTKPREEQYNSTYRVVSVLTVLHQDWLNGKEYKCKVSNKALPAPIEKTISKAKGQPREPQVYTLPPSREEMTKNQVSLTCLVKGFYPSDIAVEWESNGQPENNYKTTPPVLDSDGSFFLYSKLTVDKSRWQQGNVFSCSVMHEALHNHYTQKSLSLSPG
light: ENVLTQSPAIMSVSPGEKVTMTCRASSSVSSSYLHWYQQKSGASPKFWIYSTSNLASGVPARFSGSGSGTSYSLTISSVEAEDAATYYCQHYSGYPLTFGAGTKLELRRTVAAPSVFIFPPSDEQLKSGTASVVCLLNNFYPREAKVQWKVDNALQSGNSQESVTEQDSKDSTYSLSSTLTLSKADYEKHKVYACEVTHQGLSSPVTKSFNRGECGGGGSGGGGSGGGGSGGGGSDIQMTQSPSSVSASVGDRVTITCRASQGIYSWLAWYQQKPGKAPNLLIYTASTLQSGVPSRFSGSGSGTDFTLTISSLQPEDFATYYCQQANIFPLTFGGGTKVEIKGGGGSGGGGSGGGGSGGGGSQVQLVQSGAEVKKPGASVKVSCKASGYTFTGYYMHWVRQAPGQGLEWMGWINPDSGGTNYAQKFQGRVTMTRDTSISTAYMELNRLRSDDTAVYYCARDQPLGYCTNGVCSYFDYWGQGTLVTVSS
notes: Ly387 HC (IgG1 mutated Fc) + Ly387 LC-Ly253 scFv VL-VH
Turning to B4, the binding result is listed as “binds”.

B5: Ly807 (bispecific antibody, human IgG1, kappa)
heavy: QVQLQQPGAELVKPGASVKLSCKASGYTFTSYWMHWVKQRPGQGLEWIGMIHPNSGGTNYNEKFKGKGTLTVDKSSSTAYMQLSSLTSDDSAVYYCVTSQATWFAYWGQGTLVTVSAASTKGPSVFPLAPSSKSTSGGTAALGCLVKDYFPEPVTVSWNSGALTSGVHTFPAVLQSSGLYSLSSVVTVPSSSLGTQTYICNVNHKPSNTKVDKKVEPKSCDKTHTCPPCPAPELLGPSVFLFPPKPKDTLMISRTPEVTCVVVDVSHEDPEVKFNWYVDGVEVHNAKTKPREEQYNSTYRVVSVLTVLHQDWLNGKEYKCKVSNKALPAPIEKTISKAKGQPREPQVYTLPPSREEMTKNQVSLTCLVKGFYPSDIAVEWESNGQPENNYKTTPPVLDSDGSFFLYSKLTVDKSRWQQGNVFSCSVMHEALHNHYTQKSLSLSPG
light: ENVLTQSPAIMSVSPGEKVTMTCRASSSVSSSYLHWYQQKSGASPKFWIYSTSNLASGVPARFSGSGSGTSYSLTISSVEAEDAATYYCQHYSGYPLTFGAGTKLELRRTVAAPSVFIFPPSDEQLKSGTASVVCLLNNFYPREAKVQWKVDNALQSGNSQESVTEQDSKDSTYSLSSTLTLSKADYEKHKVYACEVTHQGLSSPVTKSFNRGECGGGGSGGGGSGGGGSGGGGSDIQMTQSPSSLSASVGDRVTITCLASEDISNDLAWYQQKPGKAPKLLIYFVDRLLDGVPSRFSGSGSGTDFTLTISSLQPEDFATYYCQQSYKYPPTFGQGTKLEIKGGGGSGGGGSGGGGSGGGGSEVQLVESGGGLVQPGGSLRLSCAASGFTFTNYGLHWVRQAPGKGLEWVSSISPSGGVTYYRDSVKGRFTISRDNSKNTLYLQMNSLRAEDTAVYYCAKPFLGWGGANWIAHWGQGTLVTVSS
notes: Ly387 HC (IgG1 mutated Fc) + Ly387 LC-TM559 scFv VL-VH
B5: the binding result is “binds”.

B6: Ly622 (bispecific antibody, human IgG1, kappa)
heavy: EVQLVESGGGLVQPGGSLRLSCAASGFTFTDYTMDWVRQAPGKGLEWVADVNPNSGGSIYNQRFKGRFTLSVDRSKNTLYLQMNSLRAEDTAVYYCARNLGPSFYFDYWGQGTLVTVSSASTKGPSVFPLAPSSKSTSGGTAALGCLVKDYFPEPVTVSWNSGALTSGVHTFPAVLQSSGLYSLSSVVTVPSSSLGTQTYICNVNHKPSNTKVDKKVEPKSCDKTHTCPPCPAPELLGPSVFLFPPKPKDTLMISRTPEVTCVVVDVSHEDPEVKFNWYVDGVEVHNAKTKPREEQYNSTYRVVSVLTVLHQDWLNGKEYKCKVSNKALPAPIEKTISKAKGQPREPQVYTLPPSREEMTKNQVSLTCLVKGFYPSDIAVEWESNGQPENNYKTTPPVLDSDGSFFLYSKLTVDKSRWQQGNVFSCSVMHEALHNHYTQKSLSLSPGGGGGSGGGGSGGGGSGGGGSDIQMTQSPSSLSASVGDRVTITCKASQNIYIYLNWYQQKPGKAPKLLIYNTNNLQTGVPSRFSGSGSGTDFTLTISSLQPEDFATYYCLQHSSRRTFGGGTKVEIKGGGGSGGGGSGGGGSGGGGSQVQLVESGGGLVQPGGSLKLSCATSGFNFNDYFMNWVRQASGKGLEWVGQIRNKNYNYATYYTESLEGRVTISRDDSKNTAYLQMNSLKTEDTAVYYCTSYYYDGFADYFDYWGQGTTVTVSS
light: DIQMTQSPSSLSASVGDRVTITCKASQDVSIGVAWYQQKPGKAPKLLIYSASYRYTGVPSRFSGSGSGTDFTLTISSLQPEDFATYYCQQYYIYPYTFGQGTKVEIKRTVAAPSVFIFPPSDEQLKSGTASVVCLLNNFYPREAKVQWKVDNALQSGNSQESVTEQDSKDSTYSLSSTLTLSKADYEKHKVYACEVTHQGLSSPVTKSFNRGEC
notes: Ly591 HC (IgG1 mutated Fc)-TM740 scFv VL-VH + Ly591 LC
On to B6, for which the binding result is “binds”.

B7: Ly813 (bispecific antibody, human IgG1, kappa)
heavy: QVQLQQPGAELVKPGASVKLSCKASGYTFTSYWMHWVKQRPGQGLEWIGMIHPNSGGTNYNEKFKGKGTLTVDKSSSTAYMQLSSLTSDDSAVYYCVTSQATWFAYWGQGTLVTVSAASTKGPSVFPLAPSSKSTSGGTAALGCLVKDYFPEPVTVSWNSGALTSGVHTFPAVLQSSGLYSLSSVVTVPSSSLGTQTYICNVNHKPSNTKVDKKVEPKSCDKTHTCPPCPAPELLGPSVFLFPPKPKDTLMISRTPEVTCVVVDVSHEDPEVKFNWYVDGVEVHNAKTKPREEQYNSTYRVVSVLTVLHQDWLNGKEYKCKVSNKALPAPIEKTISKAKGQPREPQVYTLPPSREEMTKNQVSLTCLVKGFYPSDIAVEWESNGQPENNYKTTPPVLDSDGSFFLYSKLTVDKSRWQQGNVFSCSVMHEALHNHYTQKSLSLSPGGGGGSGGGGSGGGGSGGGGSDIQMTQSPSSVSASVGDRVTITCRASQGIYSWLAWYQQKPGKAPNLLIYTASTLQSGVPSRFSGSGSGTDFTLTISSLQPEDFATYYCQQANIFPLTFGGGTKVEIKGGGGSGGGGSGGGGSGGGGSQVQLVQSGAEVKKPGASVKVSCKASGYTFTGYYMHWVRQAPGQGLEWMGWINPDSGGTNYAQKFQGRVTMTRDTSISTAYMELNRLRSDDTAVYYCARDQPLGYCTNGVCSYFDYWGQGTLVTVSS
light: ENVLTQSPAIMSVSPGEKVTMTCRASSSVSSSYLHWYQQKSGASPKFWIYSTSNLASGVPARFSGSGSGTSYSLTISSVEAEDAATYYCQHYSGYPLTFGAGTKLELRRTVAAPSVFIFPPSDEQLKSGTASVVCLLNNFYPREAKVQWKVDNALQSGNSQESVTEQDSKDSTYSLSSTLTLSKADYEKHKVYACEVTHQGLSSPVTKSFNRGEC
notes: Ly387 HC (IgG1 mutated Fc)-Ly253 scFv VL-VH + Ly387 LC
As to B7, the binding result was “binds”.

B8: Ly814 (bispecific antibody, human IgG1, kappa)
heavy: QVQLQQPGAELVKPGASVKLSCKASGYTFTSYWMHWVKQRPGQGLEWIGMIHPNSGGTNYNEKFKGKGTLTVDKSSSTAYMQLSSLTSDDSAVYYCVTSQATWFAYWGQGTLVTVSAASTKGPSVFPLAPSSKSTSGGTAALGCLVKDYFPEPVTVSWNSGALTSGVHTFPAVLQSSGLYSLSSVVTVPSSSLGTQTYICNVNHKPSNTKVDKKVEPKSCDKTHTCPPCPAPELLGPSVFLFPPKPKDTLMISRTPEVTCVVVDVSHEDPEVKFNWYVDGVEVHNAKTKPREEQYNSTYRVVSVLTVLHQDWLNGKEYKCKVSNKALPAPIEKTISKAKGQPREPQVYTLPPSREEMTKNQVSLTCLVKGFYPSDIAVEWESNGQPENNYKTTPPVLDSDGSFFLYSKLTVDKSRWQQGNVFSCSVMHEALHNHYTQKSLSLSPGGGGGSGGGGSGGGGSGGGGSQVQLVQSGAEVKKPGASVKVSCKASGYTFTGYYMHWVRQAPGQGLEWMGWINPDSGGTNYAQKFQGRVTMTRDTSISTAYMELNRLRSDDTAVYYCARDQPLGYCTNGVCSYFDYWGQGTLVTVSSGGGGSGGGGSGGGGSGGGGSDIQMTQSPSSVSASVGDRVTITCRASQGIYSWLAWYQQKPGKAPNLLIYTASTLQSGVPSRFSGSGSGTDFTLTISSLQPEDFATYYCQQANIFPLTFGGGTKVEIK
light: ENVLTQSPAIMSVSPGEKVTMTCRASSSVSSSYLHWYQQKSGASPKFWIYSTSNLASGVPARFSGSGSGTSYSLTISSVEAEDAATYYCQHYSGYPLTFGAGTKLELRRTVAAPSVFIFPPSDEQLKSGTASVVCLLNNFYPREAKVQWKVDNALQSGNSQESVTEQDSKDSTYSLSSTLTLSKADYEKHKVYACEVTHQGLSSPVTKSFNRGEC
notes: Ly387 HC-Ly253 scFv VH-VL + Ly387 LC
B8: the binding result is reported as “binds”.

B9: Ly809 (bispecific antibody, human IgG1, kappa)
heavy: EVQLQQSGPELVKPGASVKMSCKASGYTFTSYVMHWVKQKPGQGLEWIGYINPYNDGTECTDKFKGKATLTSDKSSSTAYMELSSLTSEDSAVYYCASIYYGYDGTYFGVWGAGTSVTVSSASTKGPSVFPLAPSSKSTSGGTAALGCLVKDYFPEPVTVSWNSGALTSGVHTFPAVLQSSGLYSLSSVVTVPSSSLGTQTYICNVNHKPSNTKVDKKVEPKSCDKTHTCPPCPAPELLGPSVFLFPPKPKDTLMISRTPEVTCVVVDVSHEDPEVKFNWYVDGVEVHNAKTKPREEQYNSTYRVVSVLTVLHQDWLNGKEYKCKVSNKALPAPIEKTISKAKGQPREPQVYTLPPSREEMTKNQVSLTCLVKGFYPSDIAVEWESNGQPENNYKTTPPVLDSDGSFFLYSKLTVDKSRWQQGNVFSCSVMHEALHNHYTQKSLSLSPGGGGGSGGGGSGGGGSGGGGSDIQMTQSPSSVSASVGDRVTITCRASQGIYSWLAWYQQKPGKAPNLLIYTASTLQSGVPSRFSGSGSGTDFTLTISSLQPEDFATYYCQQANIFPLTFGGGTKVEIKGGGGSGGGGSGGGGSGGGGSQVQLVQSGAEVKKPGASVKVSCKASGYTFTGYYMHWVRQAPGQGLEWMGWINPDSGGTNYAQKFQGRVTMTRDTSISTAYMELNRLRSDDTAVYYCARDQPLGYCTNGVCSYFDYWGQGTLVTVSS
light: QIVLSQSPAILSTSPGEKVTMTCRASSSVSYMHWYQQKPGSSPKPWIYATSNLASGVPARFSGSRSGTSYSLTISRVEAEDAATYYCQQWSSNTLTFGGGTKLELKRTVAAPSVFIFPPSDEQLKSGTASVVCLLNNFYPREAKVQWKVDNALQSGNSQESVTEQDSKDSTYSLSSTLTLSKADYEKHKVYACEVTHQGLSSPVTKSFNRGEC
notes: Ly383 HC (IgG1 mutated Fc)-Ly253 scFv VL-VH + Ly383 LC
Turning to B9, the binding result is “binds”.

B10: Ly810 (bispecific antibody, human IgG1, kappa)
heavy: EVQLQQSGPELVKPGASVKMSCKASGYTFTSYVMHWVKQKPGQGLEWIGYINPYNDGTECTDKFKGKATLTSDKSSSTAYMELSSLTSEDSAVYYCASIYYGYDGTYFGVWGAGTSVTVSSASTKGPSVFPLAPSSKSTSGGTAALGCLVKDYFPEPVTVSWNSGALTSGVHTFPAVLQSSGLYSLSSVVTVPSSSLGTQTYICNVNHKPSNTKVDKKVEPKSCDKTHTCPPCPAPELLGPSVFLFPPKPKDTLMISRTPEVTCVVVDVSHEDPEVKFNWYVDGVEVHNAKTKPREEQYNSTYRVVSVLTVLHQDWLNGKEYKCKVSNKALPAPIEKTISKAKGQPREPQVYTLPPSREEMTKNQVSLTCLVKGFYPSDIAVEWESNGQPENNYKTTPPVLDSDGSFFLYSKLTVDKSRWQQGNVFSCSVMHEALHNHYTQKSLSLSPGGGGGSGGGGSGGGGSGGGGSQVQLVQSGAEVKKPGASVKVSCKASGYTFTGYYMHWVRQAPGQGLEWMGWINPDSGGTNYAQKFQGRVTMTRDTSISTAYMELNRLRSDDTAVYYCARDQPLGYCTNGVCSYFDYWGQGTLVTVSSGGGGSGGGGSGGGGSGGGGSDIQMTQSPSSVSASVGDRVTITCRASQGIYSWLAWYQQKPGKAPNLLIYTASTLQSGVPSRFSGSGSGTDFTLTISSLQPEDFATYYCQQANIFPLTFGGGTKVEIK
light: QIVLSQSPAILSTSPGEKVTMTCRASSSVSYMHWYQQKPGSSPKPWIYATSNLASGVPARFSGSRSGTSYSLTISRVEAEDAATYYCQQWSSNTLTFGGGTKLELKRTVAAPSVFIFPPSDEQLKSGTASVVCLLNNFYPREAKVQWKVDNALQSGNSQESVTEQDSKDSTYSLSSTLTLSKADYEKHKVYACEVTHQGLSSPVTKSFNRGEC
notes: Ly383 HC (IgG1 mutated Fc)-Ly253 scFv VH-VL + Ly383 LC
Turning to B10, the binding result was “binds”.
